Reference: US5494895A, “Scorpion peptide margatoxin with immunosuppressant activity” (Merck & Co., Inc., priority 1993, dated 1996)
Ends that are not written are not given here.

Assays:
[1] = target: T1, Kv 1.6 (Rattus norvegicus, UniProt P17659); conditions: rat clone; cited from earlier work
T1 construct: expressed in transfected cells; host or cells: Xenopus oocytes injected with RNA transcribed in vitro from the cDNA clone

[2] = target: T2, Kv 1.3 (Rattus norvegicus, UniProt P15384); test: [125I]ChTX binding to rat brain synaptic plasma membrane vesicles
T2 construct: from tissue; host or cells: rat brain synaptic plasma membrane vesicles
T2 sequence (P15384 whole entry): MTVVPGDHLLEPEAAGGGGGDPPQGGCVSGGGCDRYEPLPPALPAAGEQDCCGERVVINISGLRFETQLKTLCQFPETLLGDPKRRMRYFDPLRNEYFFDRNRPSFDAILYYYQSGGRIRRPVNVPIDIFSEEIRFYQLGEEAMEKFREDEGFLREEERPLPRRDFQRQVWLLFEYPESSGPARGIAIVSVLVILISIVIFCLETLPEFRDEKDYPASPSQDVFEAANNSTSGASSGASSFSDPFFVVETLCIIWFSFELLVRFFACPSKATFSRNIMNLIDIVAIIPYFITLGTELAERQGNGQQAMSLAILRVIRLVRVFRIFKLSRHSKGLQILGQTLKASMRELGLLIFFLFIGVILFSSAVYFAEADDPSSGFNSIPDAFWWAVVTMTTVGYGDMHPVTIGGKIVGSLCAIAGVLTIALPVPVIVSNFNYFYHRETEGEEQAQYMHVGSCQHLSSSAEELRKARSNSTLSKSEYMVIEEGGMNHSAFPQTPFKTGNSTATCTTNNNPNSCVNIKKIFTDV
Protocol: (§1) The potency of MgTX as an inhibitor of [^125 I]ChTX binding to Kv 1.3 was evaluated. The binding of [^125 I]ChTX to either rat brain synaptic plasma membrane vesicles (Kv 1.3 channel; Vazquez et al., J. Biol. Chem. 265, 15564, 1990) or bovine aortic smooth muscle sarcolemmal membranes (Maxi-K channel; Vazquez et al., J. Biol. Chem. 264, 20402, 1989) was determined as described. Briefly, membrane vesicles were incubated with [^125 I]ChTX in the presence or absence of other added agents, until equilibrium was achieved. Separation of bound from free ligand was accomplished by filtration through GF/C glass fiber filters (WHATMAN) that had been presoaked in 0.5% polyethyleneimine. Nonspecific binding was determined in the presence of 10 nM unlabeled ChTX. Data from saturation experiments were analyzed in a Scatchard representation to determine Kd and Bmax values. Triplicate samples were obtained for each experimental point and the data were averaged. The standard deviation of the mean was typically less than 2%. […] As an indication of selectivity, MgTX had no effect on [^125 I]ChTX binding to the Maxi-K channel in smooth muscle membranes at concentrations up to 10 nM.

[3] = target: T3, Maxi-K channel (Bos taurus, UniProt Q28204); test: [125I]ChTX binding to bovine aortic smooth muscle sarcolemmal membranes
T3 construct: from tissue; host or cells: bovine aortic smooth muscle sarcolemmal membranes
T3 sequence (Q28204 whole entry): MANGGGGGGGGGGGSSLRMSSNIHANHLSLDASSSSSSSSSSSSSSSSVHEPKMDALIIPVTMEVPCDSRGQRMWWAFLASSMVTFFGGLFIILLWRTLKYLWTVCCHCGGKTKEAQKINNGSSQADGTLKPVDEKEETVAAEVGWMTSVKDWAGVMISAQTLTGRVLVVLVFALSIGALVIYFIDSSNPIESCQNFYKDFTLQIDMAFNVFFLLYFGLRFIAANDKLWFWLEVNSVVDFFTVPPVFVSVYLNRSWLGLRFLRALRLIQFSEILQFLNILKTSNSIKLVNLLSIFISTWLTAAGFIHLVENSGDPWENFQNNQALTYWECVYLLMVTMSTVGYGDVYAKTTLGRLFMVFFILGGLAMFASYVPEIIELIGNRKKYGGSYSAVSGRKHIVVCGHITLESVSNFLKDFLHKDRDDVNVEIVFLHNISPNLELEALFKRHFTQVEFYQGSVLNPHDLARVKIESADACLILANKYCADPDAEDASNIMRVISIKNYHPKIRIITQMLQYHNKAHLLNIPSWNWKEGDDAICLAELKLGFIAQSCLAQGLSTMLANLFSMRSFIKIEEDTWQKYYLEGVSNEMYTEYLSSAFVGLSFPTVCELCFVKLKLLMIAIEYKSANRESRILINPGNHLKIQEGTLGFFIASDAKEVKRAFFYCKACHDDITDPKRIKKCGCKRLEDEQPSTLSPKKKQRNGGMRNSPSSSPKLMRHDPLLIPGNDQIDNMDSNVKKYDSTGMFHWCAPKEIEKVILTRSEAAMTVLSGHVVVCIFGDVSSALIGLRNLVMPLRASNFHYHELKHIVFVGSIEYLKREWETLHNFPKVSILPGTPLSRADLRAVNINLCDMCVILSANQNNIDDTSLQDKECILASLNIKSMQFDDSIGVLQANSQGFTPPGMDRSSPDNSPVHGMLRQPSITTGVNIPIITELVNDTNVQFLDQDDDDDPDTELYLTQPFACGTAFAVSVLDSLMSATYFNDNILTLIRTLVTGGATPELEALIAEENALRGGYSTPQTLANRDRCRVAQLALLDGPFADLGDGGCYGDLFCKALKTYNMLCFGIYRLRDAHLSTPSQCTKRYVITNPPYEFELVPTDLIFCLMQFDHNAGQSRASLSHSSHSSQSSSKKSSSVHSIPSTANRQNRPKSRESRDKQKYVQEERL
T3 sequence (Q28067 whole entry partner): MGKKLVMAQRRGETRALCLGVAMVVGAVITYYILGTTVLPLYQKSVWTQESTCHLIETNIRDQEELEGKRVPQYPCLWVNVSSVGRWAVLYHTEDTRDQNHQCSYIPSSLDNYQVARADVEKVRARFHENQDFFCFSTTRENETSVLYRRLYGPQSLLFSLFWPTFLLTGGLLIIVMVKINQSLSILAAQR
Protocol: as §1

[4] = target: T4, lymphocyte Kv 1.3 current (Homo sapiens, UniProt P22001); test: Whole cell patch clamp of human peripheral T-lymphocytes; format: cell-based; conditions: electrophysiology, Example 8
T4 construct: endogenous in cells; host or cells: purified human peripheral blood T lymphocytes
T4 sequence (P22001 whole entry): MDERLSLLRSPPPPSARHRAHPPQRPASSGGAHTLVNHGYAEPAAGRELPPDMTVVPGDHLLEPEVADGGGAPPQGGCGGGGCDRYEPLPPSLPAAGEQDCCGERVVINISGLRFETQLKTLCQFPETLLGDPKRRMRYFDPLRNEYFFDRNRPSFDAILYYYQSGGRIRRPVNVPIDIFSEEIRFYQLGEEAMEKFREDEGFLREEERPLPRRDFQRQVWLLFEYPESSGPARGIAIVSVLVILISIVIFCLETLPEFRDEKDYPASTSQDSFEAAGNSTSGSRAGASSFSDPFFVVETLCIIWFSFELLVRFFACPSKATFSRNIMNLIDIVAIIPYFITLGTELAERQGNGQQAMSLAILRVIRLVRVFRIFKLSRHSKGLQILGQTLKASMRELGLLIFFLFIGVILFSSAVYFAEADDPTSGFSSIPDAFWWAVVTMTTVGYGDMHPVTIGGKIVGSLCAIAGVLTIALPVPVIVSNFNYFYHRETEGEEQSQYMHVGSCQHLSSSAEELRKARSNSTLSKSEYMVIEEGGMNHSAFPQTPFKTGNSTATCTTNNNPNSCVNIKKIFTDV
Protocol: Ionic currents were recorded from human peripheral T-lymphocytes using the whole cell patch clamp technique described in Cahalan, M. and Neher, E., Meth. Enzymol. 207, 3, 1992. Purified human T cells were obtained as described in Leonard et al., Proc. Natl. Acad. Sci. U.S.A., 89, 10094, 1992, and recordings were carried out in a bath solution consisting of ^125 mM NaCl, 2.5 mM KCl, 1.0 mM CaCl2, 2.0 mM MgCl2, 10 mM HEPES (potassium salt), 10 mM glucose, 5 mM Na-pyruvate, and 0.05% BSA. The pH was adjusted to 7.2, and experiments were performed at room temperature (19°-22° C.). The intracellular (pipette) solution contained 140 mM K-glutamate, 1 mM MgCl2, 10 mM HEPES (potassium salt), and 0.1 mM EGTA. The pH was adjusted to 7.2. Patch pipettes were fabricated from DAGAN (Minneapolis, Minn.) LG-16 glass and had resistances of 2 to 8M.OMEGA.. Currents were measured using a DAGAN model 3900 patch clamp. Delivery of command voltages, data acquisition, and post-acquisition analysis were aided by a microcomputer running the Pclamp program suite (AXON INSTRUMENTS, Foster City, Calif.).
Methods for oocyte isolation and micro-injection were previously described in Goldin, Meth. Cell Biol, 36, 487, 1991, and Swanson and Folander, Meth. Enzymol., 207, 310, 1992. Currents expressed in oocytes were measured using a DAGAN model CA-1 two-electrode voltage clamp. Delivery of command voltages, data acquisition and post-acquisition analysis were aided by a microcomputer running the Pclamp program suite. The oocyte bathing solution consisted of 96 mM NaCl, 2.5 mM KCl, 1 mM MgCl2, 1.8 mM CaCl2, 10 mM HEPES, and 0.05% BSA. The pH was 7.2. All recordings were obtained at room temperature (19°-22° C.). The intracellular microelectrodes were fabricated from DAGAN LE-16 glass in a two-stage pull to a final resistance of 0.6 to 2M.OMEGA. and filled with 3M KCl. For both lymphocyte and oocyte experiments, peptides were diluted into the extracellular solution from 20 μM aqueous stock containing 100 mM NaCl. The presence of 0.05% BSA in the bath solution inhibited non-specific loss of dilute peptide toxins in the perfusion tubing.
Both native and recombinant MgTX were tested for their ability to block voltage gated K^+ channels. […] There was insufficient native toxin to carry out selectivity studies, so those were conducted using the recombinant material exclusively. […] The apparent IC50 for inhibition of the lymphocyte Kv 1.3 current is between 20 to 100 pM. […] As reported previously, MgTX has no effect on three different ChTX-sensitive, Ca^2+ -activated K^+ channels of lymphocytes, even at 100 nM (Leonard et al., Proc. Natl. Acad. Sci. U.S.A. 89, 10094, 1992).

T1 sequence (P17659 whole entry): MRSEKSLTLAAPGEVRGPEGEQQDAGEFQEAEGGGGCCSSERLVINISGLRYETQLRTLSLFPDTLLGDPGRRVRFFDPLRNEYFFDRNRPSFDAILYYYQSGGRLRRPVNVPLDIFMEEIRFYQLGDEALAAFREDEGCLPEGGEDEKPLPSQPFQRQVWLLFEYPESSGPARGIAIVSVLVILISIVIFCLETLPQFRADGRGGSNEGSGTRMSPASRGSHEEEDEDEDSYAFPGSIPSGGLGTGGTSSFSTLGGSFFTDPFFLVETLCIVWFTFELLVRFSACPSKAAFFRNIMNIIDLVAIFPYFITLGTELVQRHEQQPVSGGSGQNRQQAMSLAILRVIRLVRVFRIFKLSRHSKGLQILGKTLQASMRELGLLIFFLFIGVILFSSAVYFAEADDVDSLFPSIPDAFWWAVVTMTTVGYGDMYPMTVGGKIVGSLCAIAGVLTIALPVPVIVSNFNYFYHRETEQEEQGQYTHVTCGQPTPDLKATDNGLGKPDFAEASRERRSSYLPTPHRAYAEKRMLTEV

Substance | IC50 [1] | potency for inhibition of [125I]ChTX binding to brain membranes compared with native MgTX [2] | effect on ChTX binding to the Maxi-K channel [3] | potency and selectivity as an inhibitor of Kv 1.3 compared with native peptide [4] | potency and selectivity as an inhibitor of Kv 1.3 compared with native peptide ([4]; listed as recombinant MgTX)
charybdotoxin [ChTX] | > 1 µM | – | – | – | –
rMgTX: recombinant MgTX expressed in E. coli as T7 gene 9 fusion protein, cleaved with factor Xa; identical to native peptide (TIINVKCTSPKQCLPPCKAQFGQSAGAKCMNGKCKCYPH; ends and bridges not checked; cysteine pairing not given here; UniProt P40755 1-39, looked up) | – | same potency as native MgTX | did not affect | same potency and selectivity | identical results
